The text below walks through data of paper PMC3711648.

As usually defined, the stoichiometry N is the number of molecules, sites or subunits per partner or assembly.

In this experiment the target is human mutant SOD1 G93A (Cu/Zn superoxide dismutase) (human). Description: SEC. A general note: Size exclusion chromatography separates by hydrodynamic size, large species first.

“human mutant SOD1 G93A (Cu/Zn superoxide dismutase) (natural protein)” yielded a stoichiometry N of 2.
